Test results as given in patent publication US20110014211A1 (INSTITUTE FOR ANTIBODIES, published 2011).

Legend:
[1] = target: neuronal cell binding domain of the heavy chain C-terminal end (Hc, E. coli recombinant protein) (Clostridium botulinum, UniProt P0DPI0 871-1296); experiment: immunoblotting of Hc after SDS-PAGE (denatured antigen)
[2] = target: Neurotoxin light chain (L-chain) (Clostridium botulinum, UniProt P0DPI0 2-448); experiment: ELISA, IgG on immobilised L-chain
[3] = target: Neurotoxin heavy chain (H-chain) (Clostridium botulinum, UniProt P0DPI0 449-1296); experiment: ELISA, IgG on immobilised H-chain

Row | Binder | binding result [1] | binding result [2] | binding result [3]
1 | BT-015 IgG type antibody (antibody, V domains shown) VH: QVQLQQSGAEVKKPGASVKVACKASRYNFSAYYMHWVRQAPGQGPEWMGWINPHSGVTTYAQKFQGRVTMTRDTSIGTAYMELSRLRSDDTALYYCARGFGSSCSDTSCSFSGLDVWGQGTTVTVSS VL: QSALTQPASVSGSPGQSITISCTGTSSDVGGYDYVSWYQQHPGEAPKLLIYDVTNRPSGVSSRFSGSKSGNTASLTISGLQPEDEADYYCTSYTSSVTYVFGSGTTLTVLS | no binding (tested: 50 µg/ml) | no binding (tested: 1 µg/ml) | 
2 | BT-175 IgG type antibody (antibody, V domains shown) VH: QITLKESGPTLVKPTQTLTLTCTFSGFSLRTSGVGVGWIRQPPGKAPEWLALIYWDGDKRFSPSLKSRLTINKDISKNQVVLTLTNLDPVDTGTYYCAHSFYHGSQSPGWFDPWGQGTLVTVSS VL: QSVLTQPPSVSAAPGQKVTISCSGSSSNIGNNYVSWYQQLPGTAPKLLIYDNNKRPSGIPDRFSGSKSGTSATLGITGLQTGDEADYYCGTWDSSLSAVFGGGTKLTVLG | no binding (tested: 50 µg/ml) |  | no binding (tested: 1 µg/ml)
3 | NT-320 IgG type antibody (antibody, V domains shown) VH: EVQLVESGGGVVQPGKSLRLSCAASGFTFSSYGMHWVRQAPGKGLEWVAVISYPGTNEYYTDSVKGRFTISRDNSKNTLYLQMNSLRAEDTAVYYCARGDIHSGYSFGGGDYGLDVWGQGTTVTVSS VL: DIQMTQSPSTLSASVGDRVTITCRASQSISGWLAWYQQKPGKAPKLLMYKASSLESGVPSRFSGSGSGTEFTLTISSLQPDDFATYYCQQYNNFPWTFGQGTKVEFK | no binding (tested: 50 µg/ml) |  | 
4 | NT-539 IgG type antibody (antibody, V domains shown) VH: not shown VL: DIQMTQSPSAVSASLGDRVTITCRASQGINPFLAWFQQKPGKVPERLIYTASRLQSGVPSRFSGSGTGTEFNLTISSLHPEDFATYYCLQHKHYPWTFGQGTKVERK | no binding (tested: 50 µg/ml) | no binding (tested: 10 µg/ml) | 
5 | NT-221 IgG type antibody (antibody, V domains shown) VH: EVQLVESGPTLVKPTQTLTLTCTFSGFSLRTSGVAVGWIRQPPGKALEWLALIYWDDDKRYSPSLKSRLTITKDTSKNQVVLTMTNMDPVDTATYYCAHNTGTDLYFDWAFDYWGQGTLVTVSS VL: QSVLTQPPSVSGAPGQRVTISCTGSSSNIGAGYDVHWYQQLPGTAPKLLIYGNSNRPSGVPDRFSGSKSGTSASLAITGLQAEDEADYYCQSYDSSLSGSVFGGGTKLTVLG | no binding (tested: 50 µg/ml) | no binding (tested: 1 µg/ml) | no binding (tested: 1 µg/ml)
